Experimental data: the supplement of paper PMC9732359
± gives the uncertainty stated by the source.

Experiment: protein stability index of a GFP-peptide fusion (yeast GPS) (PSI 1-4); higher = more stable; sorted into four equal gates, so the index is relative within each strain
How it was run: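 Mid-log yeast cultures in leucine-free medium, carrying a pooled plasmid library, were sorted into four equal gates by their GFP/Cherry fluorescence ratio. Each plasmid expressed Cherry along with GFP fused upstream of a tiled 17-residue yeast protein peptide. Plasmids recovered from each gate were PCR-amplified and Illumina-sequenced, with reads assigned to strains by barcodes. The protein stability index was obtained by summing each gate's read frequency weighted by its gate number.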

| Sequence | protein stability index (doa10∆) | protein stability index (pdr5∆) | protein stability index (san1∆) | protein stability index (ubr1∆) |
| --- | --- | --- | --- | --- |
| KALRRKIYINLALGSHN [SSN2] | 3.05 ± 0.21 | 2.76 ± 0.15 | 2.4 ± 0.11 | 3.48 ± 0.15 |
| QELKADSPFSLICQNNL [SRP72] | 2.53 ± 0.078 | 2.56 ± 0.064 | 2.66 ± 0.054 | 2.85 ± 0.049 |
| LTFMTCNSLHIPQDFEN [ESC2] | 2.17 ± 0.045 | 2.46 ± 0.047 | 2.19 ± 0.089 | 2.66 ± 0.04 |
| ITDKTIESIVNLAPKLR [GRR1] | 2.81 ± 0.081 | 2.27 ± 0.059 | 1.83 ± 0.086 | 2.76 ± 0.037 |
| AELDLMSGILHCEDKDY [RPN6] | 2.9 ± 0.052 | 3.08 ± 0.047 | 3 ± 0.046 | 3.13 ± 0.038 |
| RLGGDDLRIRIKLDIVV [SNF5] | 1.35 ± 0.16 | 1.33 ± 0.097 | 1.54 ± 0.13 | 1.29 ± 0.099 |
| RPDLIKEDHPLEFYKDK [SIR3] | 3.17 ± 0.07 | 3.23 ± 0.055 | 3.21 ± 0.039 | 3.08 ± 0.074 |
| SFLMRQFTRFFLLVPSK [ECM29] | 2.03 ± 0.067 | 2.03 ± 0.057 | 1.75 ± 0.12 | 2.31 ± 0.05 |
| NIKTSEWDLYPQGFSSV [REC8] | 2.91 ± 0.26 | 2.82 ± 0.2 |  |  |
| ALMKTLIKFVDLSRNGR [NUT1] | 2.37 ± 0.11 | 2.29 ± 0.09 | 2.26 ± 0.11 | 2.65 ± 0.15 |
| GTPEATKGMITNLQRNV [NUT2] | 2.95 ± 0.15 | 2.85 ± 0.12 | 2.94 ± 0.15 | 3.09 ± 0.19 |
| SDNKKRSGSNAAASLPS [RPC82] | 2.89 ± 0.058 | 3.19 ± 0.06 | 2.86 ± 0.042 | 3 ± 0.038 |
| KKECALLISYGVSIENE [SRB4] | 1.75 ± 0.085 | 1.9 ± 0.16 | 1.96 ± 0.24 | 2.03 ± 0.16 |
| DTISAITHQLNNKFANK [RPC25] |  | 2.42 ± 0.16 |  |  |
| ATGKKSRGINKGHKFNN [RPL15A] | 2.5 ± 0.24 | 2.69 ± 0.13 | 2.34 ± 0.12 | 2.17 ± 0.13 |
| QAQQAQQAQARLQQGRR [SNF2] | 3.02 ± 0.08 | 3.11 ± 0.092 | 2.88 ± 0.048 | 3.02 ± 0.061 |
| KTYEPVLNEDDLAFGGE [RPN5] | 3.27 ± 0.09 | 3.1 ± 0.089 | 3.29 ± 0.058 | 3.51 ± 0.12 |
| DMLLHKYYIVSSSKSMI [SRB8] | 1.26 ± 0.074 | 1.47 ± 0.062 | 1.7 ± 0.14 | 1.61 ± 0.079 |
| LNVGNVLPLGSVPEGTI [RPL2A] | 3.2 ± 0.077 | 3.15 ± 0.082 | 3.26 ± 0.1 | 3.28 ± 0.061 |
| VEEKPGDRGALARASGN [RPL2A] | 2.95 ± 0.12 | 3.23 ± 0.13 | 3.37 ± 0.092 | 3.13 ± 0.11 |
| DTKLRLEKSKNECQRLQ [YIL149C/MLP2] | 2.57 ± 0.055 | 2.85 ± 0.059 | 2.54 ± 0.056 | 2.87 ± 0.04 |
| SNSMDRSSSASNEFVPN [SWI1] | 2.75 ± 0.055 | 2.71 ± 0.055 | 2.65 ± 0.046 | 2.69 ± 0.045 |
| MAPYLPGSRASSRFIKG [RPN2] | 2.44 ± 0.059 | 2.66 ± 0.064 | 2.45 ± 0.063 | 2.53 ± 0.044 |
| SAEEQLRKIDMLQKKLV [SRB7] | 2.64 ± 0.09 | 2.58 ± 0.065 | 1.88 ± 0.097 | 2.62 ± 0.043 |
| MVLRKQKRYTVKKALAK [RPL14A] | 2.08 ± 0.14 | 2.13 ± 0.1 |  | 1.55 ± 0.19 |
| LGYPPISLVDDIINAVN [MTW1] | 2.46 ± 0.076 | 2.14 ± 0.065 | 2.44 ± 0.063 | 1.94 ± 0.069 |
| KEAAAVAEGKSKQDASP [RPL8A] | 3.22 ± 0.085 | 3.29 ± 0.056 | 3.15 ± 0.044 | 3.04 ± 0.054 |

| Sequence | protein stability index (doa10∆) | protein stability index (pdr5∆) | protein stability index (san1∆) | protein stability index (ubr1∆) |
| --- | --- | --- | --- | --- |
| GRNGSNGNDESSEYETI [NUT1] | 3.13 ± 0.13 | 3.34 ± 0.11 | 3.09 ± 0.086 | 3 ± 0.12 |
| NPIIENNVDNKYKSGGK [SSN2] | 2.92 ± 0.052 | 3.01 ± 0.041 | 3.04 ± 0.043 | 3.07 ± 0.041 |
| REPDFWVIRKQRRTNNS [MED6] | 3.51 ± 0.15 | 3.29 ± 0.09 | 2.97 ± 0.097 | 2.93 ± 0.096 |
| DDDDYNAEKYFNNGDDD [RPC31] | 3.01 ± 0.12 | 3.13 ± 0.16 | 3.06 ± 0.082 | 3.19 ± 0.07 |
| FTNVLTKYSDVLGFLQL [YJL039C/NUP192] | 2.59 ± 0.072 | 2.07 ± 0.071 | 2.85 ± 0.053 | 2.01 ± 0.052 |
| HLKILASSNFPFLNETK [RPC82] | 2.52 ± 0.055 | 2.61 ± 0.064 | 2.51 ± 0.06 | 2.62 ± 0.045 |
| KFKDMGIRAPKGALMYG [RPT5] | 3.01 ± 0.13 | 3.46 ± 0.19 | 3.17 ± 0.21 | 3.4 ± 0.18 |
| LPKIIQLQGPQWMNEMV [SOH1] | 3.15 ± 0.088 | 3.29 ± 0.064 | 3.14 ± 0.066 | 3.06 ± 0.07 |
| NEGVPSPMLSISNLTQE [FAS1] | 2.84 ± 0.055 | 2.94 ± 0.062 | 2.96 ± 0.058 | 3.12 ± 0.059 |
| FELFDNKTAHLSIPGKS [SNU114] | 2.11 ± 0.04 | 2.11 ± 0.055 | 2.25 ± 0.058 | 2.1 ± 0.031 |
| AQAQAQAQAQAQAAQAA [GAL11] | 2.91 ± 0.055 | 3.27 ± 0.045 | 3.258 ± 0.023 | 3.15 ± 0.057 |
| CLGIKDEEMLTSCTIPK [GAL11] | 2.75 ± 0.075 | 2.98 ± 0.068 | 2.68 ± 0.049 | 3.14 ± 0.059 |
| LLDAYSHIESDSTSHNN [MED1] | 2.73 ± 0.051 | 2.93 ± 0.048 | 2.6 ± 0.057 | 2.89 ± 0.038 |
| AAQAQAQAQAQAQAQAQ [GAL11] | 2.69 ± 0.045 | 2.9 ± 0.043 | 2.65 ± 0.04 | 2.95 ± 0.068 |
| CNDEDKDLETLYNKIWT [ECM29] | 3.04 ± 0.081 | 3.06 ± 0.065 | 2.44 ± 0.074 | 2.88 ± 0.037 |
| QTNIWEENWDDVEVDDD [SEM1] | 3.27 ± 0.16 | 3.28 ± 0.09 | 3.37 ± 0.082 | 3.38 ± 0.13 |
| LELMDSKKTGQFNAQGV [POP1] | 3.54 ± 0.12 | 3.6 ± 0.077 |  | 3.48 ± 0.092 |
| LGLKFDDLIAEENPIMQ [QCR7] | 2.46 ± 0.28 | 2.21 ± 0.14 | 2.32 ± 0.16 | 1.81 ± 0.079 |
| HNKLIQFGNACISLSGV [SSN2] | 2.45 ± 0.11 | 2.84 ± 0.14 | 2.73 ± 0.075 | 2.67 ± 0.13 |
| VVQDSQTATQLLERGRL [SMC2] | 2.9 ± 0.053 | 2.87 ± 0.08 | 2.81 ± 0.054 | 2.5 ± 0.058 |
| LVEEKTPGLTFNAIDLA [RPC82] | 3.23 ± 0.12 | 3.29 ± 0.11 | 3.25 ± 0.057 | 3.27 ± 0.086 |
| SFTSQGTISIQLKNGLL [MTR3] | 2.66 ± 0.05 | 2.67 ± 0.047 | 2.69 ± 0.055 | 2.61 ± 0.032 |
| REMALCRELHNKHLTTL [SSN3] | 1.62 ± 0.037 | 2.04 ± 0.041 | 1.87 ± 0.056 | 1.8 ± 0.038 |
| QNNSTGSSSIIYYDSYI [SSN2] | 2.63 ± 0.095 | 2.8 ± 0.1 | 2.79 ± 0.056 | 2.81 ± 0.081 |
| QSRLMSTSYHLNSTLES [MED6] | 2.79 ± 0.072 | 2.79 ± 0.054 | 1.97 ± 0.063 | 2.37 ± 0.062 |
| KADAQREKALNEEAEAR [RPL19A] | 3.22 ± 0.083 | 3.45 ± 0.2 | 3.23 ± 0.081 | 3.33 ± 0.098 |
| FDGFLFGSRVMIAKEVK [FAS1] | 2.58 ± 0.15 | 1.56 ± 0.18 |  | 2.55 ± 0.074 |
